Patent EP4790070A1 (Daegu Gyeongbuk Institute of Science and Technology, dated 2026)

T1: human CD24 on human cancer cell lines (MCF7, A549, Huh7) (human, UniProt P25063 27-59)
T1 construct: whole, on cells; Endogenous CD24 on cancer cell lines
T1 chain (looked up): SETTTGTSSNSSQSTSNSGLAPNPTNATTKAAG


Target: T1, human CD24 on human cancer cell lines …
Assay: flow cytometry on fixed MCF-7 cells, FITC anti-human IgG

binding result | Binder
binds | anti-CD24 antibody #1 (Fc fusion, also called Candidate 1; αCD24 antibody (#1)) VH: MAQVQLLESGGGVVQPGRSLRLSCAASGFTFSSYGMHWVRQAPGKGLEWVSGMSGDGLATYYADSVKGRFTISRDNSKNTLYLQMNSLRAEDTAVYYCARDSSSWYGGYYYYYGMDVWGQGTTVTVSSGS VL: DIQMTQSPSSVSASVGDRVTITCRASQGISSWLAWYQQKPGKAPKLLIYAASSLQSGVPPRFSGSGSGTDFTLTISSLQPEDFATYYCQQSYSTPLTFGGGTKVEIKR
binds | anti-CD24 antibody #2 (Fc fusion, also called Candidate 2) VH: MAQVQLVQSGGGLIQPGGSLRLSCAASGFTVSSNYMSWVRQAPGKGLEWVSVIYSGGSTYYADSVKGRFTISRDNSKNTLYLQMNSLRAEDTAVYYCAREYGDYFDYWGQGTLVTVSSGS VL: QSALTQPASVSGSPGQSITISCTGTSSDVGGYDHVSWYQQHPGKAPKLMIYEVTKRPSGVSDRFSGSKSGNTASLTISGLQADDEADYYCSSYAGSNSVLFGGGTQLTVLG
